Experimental data published in paper PMC6487875 (Biochemistry, 2018).
Where “and” joins values, the source holds several entries; their conditions need not be identical. Equal values may be shown once.

B1: wild type glutamate oxaloacetate transaminase 1 (WT-GOT1) (enzyme, human, UniProt P17174-1 1-413, looked up)
chain: MAPPSVFAEVPQAQPVLVFKLTADFREDPDPRKVNLGVGAYRTDDCHPWVLPVVKKVEQKIANDNSLNHEYLPILGLAEFRSCASRLALGDDSPALKEKRVGGVQSLGGTGALRIGADFLARWYNGTNNKNTPVYVSSPTWENHNAVFSAAGFKDIRSYRYWDAEKRGLDLQGFLNDLENAPEFSIVVLHACAHNPTGIDPTPEQWKQIASVMKHRFLFPFFDSAYQGFASGNLERDAWAIRYFVSEGFEFFCAQSFSKNFGLYNERVGNLTVVGKEPESILQVLSQMEKIVRITWSNPPAQGARIVASTLSNPELFEEWTGNVKTMADRILTMRSELRARLEALKTPGTWNHITDQIGMFSFTGLNPKQVEYLVNEKHIYLLPSGRINVSGLTTKNLDYVATSIHEAVTKIQ
B2: GOT1 T110A mutant (enzyme, human, UniProt P17174-1 1-413, looked up)
chain: MAPPSVFAEVPQAQPVLVFKLTADFREDPDPRKVNLGVGAYRTDDCHPWVLPVVKKVEQKIANDNSLNHEYLPILGLAEFRSCASRLALGDDSPALKEKRVGGVQSLGGAGALRIGADFLARWYNGTNNKNTPVYVSSPTWENHNAVFSAAGFKDIRSYRYWDAEKRGLDLQGFLNDLENAPEFSIVVLHACAHNPTGIDPTPEQWKQIASVMKHRFLFPFFDSAYQGFASGNLERDAWAIRYFVSEGFEFFCAQSFSKNFGLYNERVGNLTVVGKEPESILQVLSQMEKIVRITWSNPPAQGARIVASTLSNPELFEEWTGNVKTMADRILTMRSELRARLEALKTPGTWNHITDQIGMFSFTGLNPKQVEYLVNEKHIYLLPSGRINVSGLTTKNLDYVATSIHEAVTKIQ
B3: GOT1 S256A mutant (enzyme, human, UniProt P17174-1 1-413, looked up)
chain: MAPPSVFAEVPQAQPVLVFKLTADFREDPDPRKVNLGVGAYRTDDCHPWVLPVVKKVEQKIANDNSLNHEYLPILGLAEFRSCASRLALGDDSPALKEKRVGGVQSLGGTGALRIGADFLARWYNGTNNKNTPVYVSSPTWENHNAVFSAAGFKDIRSYRYWDAEKRGLDLQGFLNDLENAPEFSIVVLHACAHNPTGIDPTPEQWKQIASVMKHRFLFPFFDSAYQGFASGNLERDAWAIRYFVSEGFEFFCAQAFSKNFGLYNERVGNLTVVGKEPESILQVLSQMEKIVRITWSNPPAQGARIVASTLSNPELFEEWTGNVKTMADRILTMRSELRARLEALKTPGTWNHITDQIGMFSFTGLNPKQVEYLVNEKHIYLLPSGRINVSGLTTKNLDYVATSIHEAVTKIQ

Target: the molecule itself
Assay: SEC

| Protein | stoichiometry N |
| --- | --- |
| B1 | 2 and 4 |
| B2 | 2 |
| B3 | 2 |
